# Target: the molecule itself
# Assay: SEC; 40 μg TMEM16F (0.4 mg/mL) incubated with 40 μg #50 affibody (0.5 mg/mL) for 2 h at 4°C, separated on Superose 6 FPLC; fractions around 14.8 mL analysed by SDS-PAGE and Western blot
protein,measurement,value
"human TMEM16F (hTMEM16F) variant 1, SBP-tagged, purified (natural protein, UniProt Q4KMQ2-1 1-910, looked up, Human TMEM16F variant 1 (anoctamin-6), cDNA clone NM_001025356.2 bought from Genescript; called 'purified whole TMEM16F protein' in the discussion; In one BLI experiment the same protein was incorporated into nanodiscs (MSP 2N2, Addgene #29520; POPC:POPG 3:1; TMEM16F:MSP:lipid 1:5:100) under detergent-free conditions; also called purified human TMEM16F protein; TMEM16F-nanodisc complex (when …)) MKKMSRNVLLQMEEEEDDDDGDIVLENLGQTIVPDLGSLESQHDFRTPEFEEFNGKPDSLFFNDGQRRIDFVLVYEDESRKETNKKGTNEKQRRKRQAYESNLICHGLQLEATRSVLDDKLVFVKVHAPWEVLCTYAEIMHIKLPLKPNDLKNRSSAFGTLNWFTKVLSVDESIIKPEQEFFTAPFEKNRMNDFYIVDRDAFFNPATRSRIVYFILSRVKYQVINNVSKFGINRLVNSGIYKAAFPLHDCKFRRQSEDPSCPNERYLLYREWAHPRSIYKKQPLDLIRKYYGEKIGIYFAWLGYYTQMLLLAAVVGVACFLYGYLNQDNCTWSKEVCHPDIGGKIIMCPQCDRLCPFWKLNITCESSKKLCIFDSFGTLVFAVFMGVWVTLFLEFWKRRQAELEYEWDTVELQQEEQARPEYEARCTHVVINEITQEEERIPFTAWGKCIRITLCASAVFFWILLIIASVIGIIVYRLSVFIVFSAKLPKNINGTDPIQKYLTPQTATSITASIISFIIIMILNTIYEKVAIMITNFELPRTQTDYENSLTMKMFLFQFVNYYSSCFYIAFFKGKFVGYPGDPVYWLGKYRNEECDPGGCLLELTTQLTIIMGGKAIWNNIQEVLLPWIMNLIGRFHRVSGSEKITPRWEQDYHLQPMGKLGLFYEYLEMIIQFGFVTLFVASFPLAPLLALVNNILEIRVDAWKLTTQFRRLVPEKAQDIGAWQPIMQGIAILAVVTNAMIIAFTSDMIPRLVYYWSFSVPPYGDHTSYTMEGYINNTLSIFKVADFKNKSKGNPYSDLGNHTTCRYRDFRYPPGHPQEYKHNIYYWHVIAAKLAFIIVMEHVIYSVKFFISYAIPDVSKRTKSKIQREKYLTQKLLHENHLKDMTKNMGVIAERMIEAVDNNLRPKSE",stoichiometry N,2
